Measured values taken from US20070020258A1.

Experiments:
[1] = target: FcεRII (CD23) on IM9 B cells (human) (UniProt P06734); assay: FACS, IM9 cells, 10 ug/ml
[2] = target: FcεRI alpha chain on CHO 3D10 cells (UniProt P12319); assay: FACS, CHO 3D10 cells, 0.1 ug/ml
[3] = target: FcεRI alpha chain on CHO 3D10 cells (UniProt P12319); assay: FACS, CHO 3D10 cells, 5 ug/ml
[4] = target: FcεRII (CD23) on IM9 B cells (human) (UniProt P06734); assay: FACS, IM9 cells, 5 ug/ml
[5] = target: FcεRII (CD23) on IM9 B cells (human) (UniProt P06734); assay: FACS, IM9 cells, 0.1 ug/ml
[6] = target: FcεRI alpha chain on CHO 3D10 cells (UniProt P12319); assay: FACS, CHO 3D10 cells, 0.5 ug/ml
[7] = target: FcεRI alpha chain on CHO 3D10 cells (UniProt P12319); assay: FACS, CHO 3D10 cells, 10 ug/ml

Sequence of FcεRII (CD23) on IM9 B cells (human) (P06734 whole entry): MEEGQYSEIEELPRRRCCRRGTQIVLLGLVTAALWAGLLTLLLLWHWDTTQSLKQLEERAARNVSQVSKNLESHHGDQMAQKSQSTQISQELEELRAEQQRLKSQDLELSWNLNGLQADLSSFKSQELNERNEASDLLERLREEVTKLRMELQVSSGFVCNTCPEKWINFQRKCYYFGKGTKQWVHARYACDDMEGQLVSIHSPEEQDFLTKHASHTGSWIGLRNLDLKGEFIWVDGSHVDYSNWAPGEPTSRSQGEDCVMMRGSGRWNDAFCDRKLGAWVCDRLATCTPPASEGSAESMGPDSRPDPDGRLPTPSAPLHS
Sequence of FcεRI alpha chain on CHO 3D10 cells (P12319 26-257 limits assumed): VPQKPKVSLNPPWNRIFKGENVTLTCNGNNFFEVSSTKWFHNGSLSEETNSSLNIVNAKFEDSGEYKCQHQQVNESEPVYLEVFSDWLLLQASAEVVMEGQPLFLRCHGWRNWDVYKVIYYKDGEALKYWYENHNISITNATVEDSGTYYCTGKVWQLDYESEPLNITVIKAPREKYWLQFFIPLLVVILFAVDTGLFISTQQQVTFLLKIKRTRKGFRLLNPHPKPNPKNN

% IM9 (+) [1]: 92.5%
% CHO 3D10(+) [2]: 15.8%
% CHO 3D10(+) [3]: 89.9%
% IM9 (+) [4]: 82.6%
% IM9 (+) [5]: 1.7%
% CHO 3D10(+) [6]: 59.6%
% CHO 3D10(+) [7]: 90.3%
Substance: human IgE purified from U266B1 cells (from UniProt P01854 1-428) (antibody)
